Patent publication US20240060043A1

Biological target: FMC63 protein (Example 2)
Test: ELISA, 500 ng/well coated FMC63, fresh biotinylated fusion protein at 500 or 0.5 ng/well, 4° C.

fold increase in absorbance over wells without fusion protein: > 7 fold
Substance: TNF-α:CD19 ECD fusion protein (ClonedTNFFP)
